Publication PMC5897841, “Development of a multipurpose scaffold for the display of peptide loops” (Protein Engineering, Design and Selection, 2017)

Assays:
[1] = molecular target: Alexa Fluor 488-labeled cRAD-TPX2_((7–43)) display protein (Pyrococcus furiosus | human) (UniProt O74036); experiment: fluorescence polarisation; fluorescence anisotropy, direct titration of kinase (CK2α 2 nM-2 μM; Aurora A D274N 2 nM-1.5 μM) into labelled peptide or display protein; 10 mM HEPES pH 7.4, 500 mM NaCl, 1 mM DTT, 0.05% P20; room temperature; 1:1 model
[2] = molecular target: cRAD-TPX2_((7–43)) display protein (Pyrococcus furiosus | human) (UniProt O74036); experiment: SPR; Biacore T100, CM5, peptides or cRAD display proteins immobilised through their cysteine (240-400 RU), kinase as analyte 2.5 nM-2.5 μM, 25°C, 10 mM HEPES pH 7.4, 500 mM NaCl, 0.05% P20; 1:1 steady-state affinity model; CK2α data analysed at 200 s post-injection

B1: Aurora A_(D274N) kinase domain (domain or fragment)
chain: ESKKRQWALEDFEIGRPLGKGKFGNVYLAREKQSKFILALKVLFKAQLEKAGVEHQLRREVEIQSHLRHPNILRLYGYFHDATRVYLILEYAPLGTVYRELQKLSKFDEQRTATYITELANALSYCHSKRVIHRDIKPENLLLGSAGELKIANFGWSVHAPSSRRTTLCGTLDYLPPEMIEGRMHDEKVDLWSLGVLCYEFLVGKPPFEANTYQETYKRISRVEFTFPDFVTEGARDLISRLLKHNPSQRPMLREVLEHPWITANSSKPSNCQNKESASKQS
Kd [1]: 98 nM | Kd [2]: 168 nM
